{"source": "paper PMC6628902", "origin": "cited, not measured here", "target": "CXCL12 (Homo sapiens) (UniProt P48061)", "sequence (P48061 22-89)": "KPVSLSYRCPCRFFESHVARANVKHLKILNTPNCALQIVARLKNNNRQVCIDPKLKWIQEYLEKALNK"}
{"substance": "CXCR4 (from UniProt P61073)", "values": [{"measurement": "Kd", "value": 4.5, "unit": "nM"}]}
